Numbering of substitutions follows the chain as printed.

The record followed here is patent publication US20210380703A1 (RIGEL PHARMACEUTICALS, published 2021).

First the molecules themselves.
B1: 371_B01 (antibody, V domains shown)
VH: EVQLLESGGGLVQPGGSLRLSCAASGFTFDSYSMNWVRQAPGKGLEWVSNINYNSGYTGYADSVKGRFTISRDNSKNTLYLQMNSLRAEDTAVYYCARGATWHDTHLDYWGQGTLVTVSS
VL: DIQMTQSPSSLSASVGDRVTITCRASQSILSYVNWYQQKPGKAPKLLIYAATSLASGVPSRFSGSGSGTDFTLTISSLQPEDFATYYCQQSYDLPLTFGGGTKVEIK
notes: VH/VL only
B2: 373_A06 (antibody, V domains shown)
VH: B1 VH with D30S, N50G, S55G, T58K, G59S
VL: not shown
notes: VH/VL only
B3: 371_H11 (antibody, V domains shown)
VH: B1 VH with D30S, N50G, S55G, T58K
VL: B1 VL with S31T, V33L, A51T, L54R, A55H, D93E, L94S
notes: VH/VL only
B4: 371_C06 (antibody, V domains shown)
VH: B1 VH with D30S, N50S, S55G, G59S
VL: B1 VL with L30S, V33L, A51V, L54R
notes: VH/VL only
B5: 373_G02 (antibody, V domains shown)
VH: B1 VH with D30S, N50G, S55G, G59S
VL: B1 VL with L30I, S31T, V33L, L54R, D93S, L94S
notes: VH/VL only
B6: 373_D06 (antibody, V domains shown)
VH: B1 VH with D30S, S49A, N50G, S55G, G59S
VL: B1 VL with L30V, S31T, V33L, L54R, L94T
notes: VH/VL only
B7: 371_E05 (antibody, V domains shown)
VH: B1 VH with D30S, S49A, N50G, S55G, G59S
VL: B1 VL with L30I, V33L, L47V, L54R, D93S, L94S
notes: VH/VL only
B8: 374_D09 (antibody, V domains shown)
VH: B1 VH with S33G, S49A, S55G, T58K
VL: B1 VL with L30I, L94T
notes: VH/VL only
B9: 375_C01 (antibody, V domains shown)
VH: B1 VH with D30S, S33G, N50S, S55G, T58K
VL: not shown
notes: VH/VL only
B10: 371_E09 (antibody, V domains shown)
VH: B1 VH with D30S, S31D, N50G, G59S
VL: B1 VL with S31T, V33L, L54R, D93N, L94S
notes: VH/VL only
B11: 372_E08 (antibody, V domains shown)
VH: B1 VH with D30S, S31D, S55G, G59S
VL: B1 VL with L30I, S31T, V33L, L54R, D93N
notes: VH/VL only
B12: 372_B09 (antibody, V domains shown)
VH: B1 VH with D30S, N50S, G59S
VL: B1 VL with S31T, V33L, L54R, D93E, L94T
notes: VH/VL only
B13: 374_C10 (antibody, V domains shown)
VH: B1 VH with D30S, N50S, S55G, T58K
VL: B1 VL with L30V, S31T, V33L, D93N, L94T
notes: VH/VL only
B14: 371_E12 (antibody, V domains shown)
VH: B1 VH with N50G, T58K, G59S
VL: B1 VL with V33L, L94T
notes: VH/VL only
B15: 375_A03 (antibody, V domains shown)
VH: B1 VH with S49A, N50G, S55G, G59S
VL: B1 VL with S31T, V33L, L54R, A55H, L94N
notes: VH/VL only
B16: 371_F09 (antibody, V domains shown)
VH: B1 VH with D30S, S49A, N50G, S55G, G59S
VL: B1 VL with S31T, V33L, L54R, L94N
notes: VH/VL only
B17: 374_A05 (antibody, V domains shown)
VH: B1 VH with D30S, S31D, S33G, S49A, S55G, T58K
VL: B1 VL with L30V, S31R, V33L, L47V, D93E
notes: VH/VL only
B18: 371_C07 (antibody, V domains shown)
VH: B1 VH with S33G, S55G, H106A
VL: B1 VL with V33L, L94T
notes: VH/VL only
B19: 371_E08 (antibody, V domains shown)
VH: B1 VH with D30S, T58K, G59S
VL: B1 VL with L30V, L47V, L54R, A55H
notes: VH/VL only
B20: 374_H05 (antibody, V domains shown)
VH: B1 VH with D30S, S49A, N50G, S55G, G59S
VL: B1 VL with L47V, L54R, L94N
notes: VH/VL only
B21: 373_B09 (antibody, V domains shown)
VH: B1 VH with N50G, S55G, T58K, G59S
VL: B1 VL with V33L, L47V, D93E, L94T
notes: VH/VL only
B22: 374_G05 (antibody, V domains shown)
VH: B1 VH with D30S, T58K
VL: B1 VL with L30I, V33L, L54R
notes: VH/VL only
B23: 371_F03 (antibody, V domains shown)
VH: B1 VH with D30S, N50G, S55G, G59S
VL: B1 VL with L30I, S31T, V33L, A55H, L94N
notes: VH/VL only
B24: 374_A04 (antibody, V domains shown)
VH: B1 VH with D30S, S49A, N50G, S55G, G59S
VL: B1 VL with S31T, V33L, L47V, L54R, L94T
notes: VH/VL only
B25: 372_H11 (antibody, V domains shown)
VH: B1 VH with D30S, S33G, N35H, S49A, N50G, S55G, G59S
VL: B1 VL with L54R, D93E, L94N
notes: VH/VL only
B26: 373_F07 (antibody, V domains shown)
VH: B1 VH with D30S, N50G, T58K, G59S
VL: B1 VL with V33L, D93E, L94T
notes: VH/VL only
B27: 374_D04 (antibody, V domains shown)
VH: B1 VH with D30S, S49A, N50G, S55G, G59S
VL: B1 VL with V33L, L47V, L54R, A55H, L94T
notes: VH/VL only
B28: 372_F02 (antibody, V domains shown)
VH: B1 VH with D30S, S33G, N35H, S49A, N50S, S55G, G59S
VL: B1 VL with S31T, V33L, L47V, L54R, A55H
notes: VH/VL only
B29: 371_G01 (antibody, V domains shown)
VH: B1 VH with D30S, S31D, S55G, G59S
VL: B1 VL with S31T, V33L
notes: VH/VL only
B30: 375_F10 (antibody, V domains shown)
VH: B1 VH with D30S, N50G, S55G
VL: B1 VL with S31T, V33L, L47V, L54R, L94T
notes: VH/VL only
B31: 375_C11 (antibody, V domains shown)
VH: B1 VH with D30S, N50S, S55G, G59S
VL: B1 VL with L54R, A55H, L94T
notes: VH/VL only
Also: test concentration or dose not given here.

Sequence of Mouse ACVR2A (P27038 20-135 limits assumed): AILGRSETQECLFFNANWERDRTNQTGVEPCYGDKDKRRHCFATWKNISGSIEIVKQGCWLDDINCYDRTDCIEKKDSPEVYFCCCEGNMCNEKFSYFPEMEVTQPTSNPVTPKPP
T2 sequence (P27037 20-135 limits assumed): as the sequence (P27038 20-135 limits assumed) above, with R20K, I73V counted along it

The target in one experiment is T1, Goat anti-Human Kappa.
T1 construct: Positive control; also called biotinylated goat anti-human kappa light chain
Briefly: ELISA; positive control. In short, it runs like this:
(§1)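 mAb binding by ELISA; antigens: hu ACVR2A, mu ACVR2A; pos ctrl biotinylated goat anti-hu kappa LC; neg ctrl hu Fc.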
As to B1, the optical density came to 3.58 OD.

B2 came in with an optical density of 3.07 OD.

B3 displayed an optical density of 3.6 OD.

B4 came in with an optical density of 3.44 OD.

The molecule B5 registered an optical density of 3.22 OD.

The molecule B6 gave an optical density of 3.21 OD.

For the molecule B7, the optical density worked out at 3.45 OD.

As to B8, the optical density is 3.1 OD.

For the molecule B9, the optical density is 3.14 OD.

With B10, the optical density came to 3.15 OD.

As to B11, the optical density turned out to be 3.51 OD.

B12: the optical density came out at 3.5 OD.

In turn, B13 returned an optical density of 3.08 OD.

Turning to B14, the optical density amounted to 3.62 OD.

In the case of B15, the optical density was found to be 3.09 OD.

As for B16, the optical density came out at 3.6 OD.

As for B17, the optical density came to 2.92 OD.

The molecule B18 gave an optical density of 3.36 OD.

On to B19, for which the optical density was 2.64 OD.

The molecule B20 showed an optical density of 3.04 OD.

In the case of B21, the optical density was determined as 3.24 OD.

Consider B22, for which the optical density was found to be 3 OD.

The molecule B23 gave an optical density of 1.82 OD.

Turning to B24, the optical density worked out at 2.99 OD.

In turn, B25 gave an optical density of 3.65 OD.

With B26, the optical density came out at 3.13 OD.

The molecule B27 gave an optical density of 3.05 OD.

In turn, B28 yielded an optical density of 3.69 OD.

B29 gave an optical density of 1.79 OD.

For B30, the optical density amounted to 3.29 OD.

As to B31, the optical density came out at 3.26 OD.

In a further experiment the target is Mouse ACVR2A (mouse, UniProt P27038 20-135, limits assumed). Briefly: ELISA. The method, boiled down:
as §1
(In an ELISA, binding on a coated surface is turned into a signal by an enzyme label.)
On to B1, for which the optical density came out at 3.27 OD.

In turn, B2 showed an optical density of 3.62 OD.

B3 registered an optical density of 3.12 OD.

With B4, the optical density came to 3.01 OD.

As to B5, the optical density is 3.56 OD.

Molecule B6 displayed an optical density of 3.57 OD.

Take B7: the optical density is 3.18 OD.

B8 yielded an optical density of 3.65 OD.

As for B9, the optical density was 3.27 OD.

Regarding B10, the optical density was 2.28 OD.

Take B11: the optical density was 2.82 OD.

B12: the optical density came out at 3.01 OD.

As for B13, the optical density turned out to be 3.67 OD.

For the molecule B14, the optical density came to 2.99 OD.

In turn, B15 gave an optical density of 3.62 OD.

B16: the optical density was found to be 3.57 OD.

B17: the optical density is 3.6 OD.

Take B18: the optical density is 1.45 OD.

In turn, B19 showed an optical density of 2.27 OD.

The molecule B20 displayed an optical density of 3.3 OD.

B21 came in with an optical density of 3.62 OD.

B22 showed an optical density of 3.67 OD.

B23 returned an optical density of 1.3 OD.

B24 displayed an optical density of 3.68 OD.

In the case of B25, the optical density came out at 2.86 OD.

B26 yielded an optical density of 3.62 OD.

Molecule B27 showed an optical density of 3.65 OD.

In turn, B28 had an optical density of 3.09 OD.

B29 registered an optical density of 2.24 OD.

In turn, B30 returned an optical density of 3.77 OD.

On to B31, for which the optical density was found to be 3.61 OD.

The next experiment concerns the target T2, Human ACVR2A (human, UniProt P27037 20-135, limits assumed).
T2 construct: also called activin receptor, type II A
Briefly: ELISA. The method, boiled down: as §1
B1 returned an optical density of 3.26 OD.

B2 displayed an optical density of 3.64 OD.

B3 came in with an optical density of 2.89 OD.

The molecule B4 returned an optical density of 2.49 OD.

Turning to B5, the optical density was found to be 3.59 OD.

As to B6, the optical density came to 3.63 OD.

B7 came in with an optical density of 2.99 OD.

Molecule B8 gave an optical density of 3.61 OD.

On to B9, for which the optical density was 2.96 OD.

Turning to B10, the optical density was 2.08 OD.

B11 registered an optical density of 2.56 OD.

Take B12: the optical density worked out at 3.11 OD.

With B13, the optical density came to 3.57 OD.

For B14, the optical density worked out at 3.09 OD.

Molecule B15 had an optical density of 3.62 OD.

B16 had an optical density of 3.37 OD.

In turn, B17 returned an optical density of 3.6 OD.

Molecule B18 gave an optical density of 1.39 OD.

Consider B19, for which the optical density was determined as 2.11 OD.

The molecule B20 came in with an optical density of 3.31 OD.

Molecule B21 gave an optical density of 3.6 OD.

Turning to B22, the optical density was found to be 3.66 OD.

In turn, B23 came in with an optical density of 1.19 OD.

The molecule B24 had an optical density of 3.65 OD.

As to B25, the optical density turned out to be 2.62 OD.

B26 had an optical density of 3.61 OD.

Molecule B27 showed an optical density of 3.63 OD.

Regarding B28, the optical density turned out to be 3.01 OD.

B29 came in with an optical density of 2.01 OD.

B30 gave an optical density of 3.69 OD.

B31 gave an optical density of 3.59 OD.
